Measured values published in patent publication US6884600 (MEDICAL RESEARCH COUNCIL LONDON, dated 2005).

T1: MBP-M110-(K933-I1004) (chicken, UniProt Q90623 933-1004, digoxigenin label when used as probe)
T1 construct: also called digoxigenin-labelled MBP-M110-(K933-I1004); digoxigenin-labelled M110-(K933-I1004)
T1 sequence: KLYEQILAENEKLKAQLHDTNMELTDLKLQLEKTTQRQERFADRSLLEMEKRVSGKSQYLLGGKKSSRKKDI

B1: M110-(M1-E309), released from GST with thrombin (other)
chain: GSPGMKMADAKQKRNEQLKRWIGSETDLEPPVVKRQKTKVKFDDGAVFLAACSSGDTDEVLKLLHRGADINYANVDGLTALHQACIDDNVDMVKFLVENGANINQPDNEGWIPLHAAASCGYLDIAEFLIGQGAHVGAVNSEGDTPLDIAEEEAMEELLQNEVNRQGVDIEAARKEEERIMLRDARQWLNSGHISDVRHAKSGGTALHVAAAKGYTEVLKLLIQAGYDVNIKDYDGWTPLHAAAHWGKEEACRILVDNLCDMETVNKVGQTAFDVADEDILGYLEELQKKQNLLHSEKRDKKSPLIESTANMEA
notes: Rat aorta M110 fragment; free GST was left in the solution after cleavage; also called M100-(M1-E309)
B2: M21-(M1-E110), released from GST with thrombin (other)
chain: MSSLFTRSKEYTRSRKSQSDSPPSSPSPIAKTLRHERLSRLEAATTPATSDSYSDRASSRSSAYSRRENRLAALSSRAEEESNRDYKKLYESALSENQKLKSKLQEAQLEA
notes: not shown: the few vector residues left at the N terminus after thrombin cleavage of the modified pGEX fusion
B3: β isoform of PP1c released from rabbit skeletal muscle PP1G (enzyme, UniProt P62143 2-327, looked up)
chain: ADGELNVDSLITRLLEVRGCRPGKIVQMTEAEVRGLCIKSREIFLSQPILLELEAPLKICGDIHGQYTDLLRLFEYGGFPPEANYLFLGDYVDRGKQSLETICLLLAYKIKYPENFFLLRGNHECASINRIYGFYDECKRRFNIKLWKTFTDCFNCLPIAAIVDEKIFCCHGGLSPDLQSMEQIRRIMRPTDVPDTGLLCDLLWSDPDKDVQGWGENDRGVSFTFGADVVSKFLNRHDLDLICRAHQVVEDGYEFFAKRQLVTLFSAPNYCGEFDNAGGMMSVDETLMCSFQILKPSEKKAKYQYGGLNSGRPVTPPRTANPPKKR
notes: mature; also called PP1 catalytic subunit

What was measured:
[1] = target: T2, myosin from chicken gizzard, dephosphorylated form (chicken, UniProt P10587 2-1979; P02612 2-172; P02607 2-151); test: not described in Example 1
T2 construct: mature; Native protein pelleted by centrifugation; 1 µM in terms of heavy chains; also called myosin dimer
T2 sequence (P10587 2-1979, chain 1 of 3): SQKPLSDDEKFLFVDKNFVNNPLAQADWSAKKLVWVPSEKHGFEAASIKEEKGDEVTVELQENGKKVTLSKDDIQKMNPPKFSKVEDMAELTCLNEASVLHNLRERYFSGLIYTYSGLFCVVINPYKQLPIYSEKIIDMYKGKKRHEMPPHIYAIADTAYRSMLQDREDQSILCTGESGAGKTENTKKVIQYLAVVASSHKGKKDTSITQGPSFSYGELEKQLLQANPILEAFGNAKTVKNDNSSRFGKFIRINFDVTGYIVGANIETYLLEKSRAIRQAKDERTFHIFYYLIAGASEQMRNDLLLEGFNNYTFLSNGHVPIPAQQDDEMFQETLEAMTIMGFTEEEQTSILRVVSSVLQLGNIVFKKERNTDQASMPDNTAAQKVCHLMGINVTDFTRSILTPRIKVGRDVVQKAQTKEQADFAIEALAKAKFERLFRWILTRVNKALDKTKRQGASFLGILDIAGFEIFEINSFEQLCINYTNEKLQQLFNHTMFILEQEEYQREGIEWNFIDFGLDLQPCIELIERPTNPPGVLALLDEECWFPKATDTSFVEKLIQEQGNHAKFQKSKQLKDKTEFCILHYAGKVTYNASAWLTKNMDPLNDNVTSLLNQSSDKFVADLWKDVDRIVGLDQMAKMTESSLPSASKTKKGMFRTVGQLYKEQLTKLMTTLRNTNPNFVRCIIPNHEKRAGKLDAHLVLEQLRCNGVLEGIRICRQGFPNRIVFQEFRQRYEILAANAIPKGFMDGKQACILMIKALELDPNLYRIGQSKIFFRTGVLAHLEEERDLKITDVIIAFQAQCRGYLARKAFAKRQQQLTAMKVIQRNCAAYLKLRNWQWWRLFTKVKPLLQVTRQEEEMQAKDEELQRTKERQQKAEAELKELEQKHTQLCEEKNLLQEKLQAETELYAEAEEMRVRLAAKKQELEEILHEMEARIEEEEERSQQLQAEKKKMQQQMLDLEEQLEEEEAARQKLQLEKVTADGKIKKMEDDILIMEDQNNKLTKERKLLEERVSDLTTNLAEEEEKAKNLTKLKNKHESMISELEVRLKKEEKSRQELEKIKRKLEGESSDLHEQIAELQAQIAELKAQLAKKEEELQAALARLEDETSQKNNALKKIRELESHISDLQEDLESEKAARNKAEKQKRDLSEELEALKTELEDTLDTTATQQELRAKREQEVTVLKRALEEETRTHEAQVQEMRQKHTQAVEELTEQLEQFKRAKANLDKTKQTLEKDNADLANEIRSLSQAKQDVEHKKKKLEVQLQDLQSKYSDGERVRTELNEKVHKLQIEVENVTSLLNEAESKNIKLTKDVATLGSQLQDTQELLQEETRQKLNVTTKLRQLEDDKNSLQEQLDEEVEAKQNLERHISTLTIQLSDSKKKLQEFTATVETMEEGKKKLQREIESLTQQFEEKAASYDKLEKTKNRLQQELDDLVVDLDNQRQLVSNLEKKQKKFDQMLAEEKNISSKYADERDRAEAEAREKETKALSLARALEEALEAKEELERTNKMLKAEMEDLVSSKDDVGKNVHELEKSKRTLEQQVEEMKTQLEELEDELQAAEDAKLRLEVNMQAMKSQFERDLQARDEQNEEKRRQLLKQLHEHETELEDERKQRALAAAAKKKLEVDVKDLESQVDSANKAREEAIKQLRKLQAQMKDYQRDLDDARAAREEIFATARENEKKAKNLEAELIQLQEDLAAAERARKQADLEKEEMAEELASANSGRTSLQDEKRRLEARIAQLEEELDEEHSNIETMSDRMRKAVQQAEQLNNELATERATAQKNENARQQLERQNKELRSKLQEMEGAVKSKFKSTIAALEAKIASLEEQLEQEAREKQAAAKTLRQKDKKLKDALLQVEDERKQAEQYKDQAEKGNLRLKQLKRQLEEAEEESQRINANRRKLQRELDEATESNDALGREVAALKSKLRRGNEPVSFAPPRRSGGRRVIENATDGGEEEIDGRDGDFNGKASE
T2 sequence (P02612 2-172, chain 2 of 3): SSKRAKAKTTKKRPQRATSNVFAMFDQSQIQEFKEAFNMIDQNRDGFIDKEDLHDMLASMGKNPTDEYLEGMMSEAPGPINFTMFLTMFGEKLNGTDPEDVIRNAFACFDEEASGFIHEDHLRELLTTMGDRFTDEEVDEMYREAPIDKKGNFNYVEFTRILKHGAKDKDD
T2 sequence (P02607 2-151, chain 3 of 3): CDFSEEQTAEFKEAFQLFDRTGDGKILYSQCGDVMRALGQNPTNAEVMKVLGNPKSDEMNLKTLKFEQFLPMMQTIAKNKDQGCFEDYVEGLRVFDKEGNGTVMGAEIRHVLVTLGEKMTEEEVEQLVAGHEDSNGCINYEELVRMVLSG

[2] = target: B3; test: cell-based or functional assay
[3] = target: T1, MBP-M110-(K933-I1004); test: Far Western, blot probed with digoxigenin-labelled MBP-M110-(K933-I1004)
Description: A) GST-$M21$ 5 μg (track 1), $M21$ 5 μg (track 2), $M21$-(M1-L146) 5 μg (track 3), $M21$-(M1-E110) 20 μg (track 4) and $M21$-(E110-K186) 5 μg (track 5) were run on 16.5% polyacrylamide gels and stained with Coomassie Blue. The marker proteins ovalbumin (43 kDa) and carbonic anhydrase (29 kDa) are indicated. B) GST-$M21$ 0.5 μg (track 1), $M21$ 0.5 μg (track 2), $M21$-M1-L146) 0.5 μg (track 3), $M21$-(M1-E110) 5 μg (track 4) and $M21$-(E110-K186) 5 μg (track 5) were electrophoresed as in A) and after transfer to nitrocellulose the blots were probed with digoxigenin-labelled MBP-$M110$-(K933-I1004) (0.2 μg/Ml). C) same as B) except that, after electrophoresis, the proteins were transferred to nitrocellulose and probed with digoxigenin-labelled $M21$ subunit (0.2 μg/ml).

[4] = target: T2, myosin from chicken gizzard, …; test: co-sedimentation with myosin, phosphatase activity in pellet and supernatant
Description: The PP1 catalytic subunit (PP1c), PP1_M, or PP1_M lacking the $M21$ subunit, $PP1_M(\Delta M21)$, each at 30 nM, were incubated for 15 min at 0° C. with 1 μM myosin and centrifuged (see Methods of Example 3). […] The results shown are the average (±S.E.M.) for three separate experiments each assayed in duplicate.
Myosin binding assays. Myosin (0.5 mg/ml, 1 µM in terms of myosin heavy chains) in 10 mM Hepes pH 7.5, 50 mM KCl, 5 mM MgCl2, 0.1% (by vol) 2-mercaptoethanol, was mixed with PP1_M, M$21$ subunit, or fragments of the M$110$ and M$21$ subunits, at the concentrations indicated in figure legends. After incubation for 15 min at 0° C., the solutions were centrifuged for 2 min at 13,000×g, the supernatants removed, and the pellets washed twice in 10 mM Hepes pH 7.5, 50 mM KCl, 5 mM MgCl2, 0.1% (by vol) 2-mercaptoethanol before resuspension in 50 mM Tris-HCl pH 7.5, 0.1 mM EGTA, 0.03% (by mass) Brij 35, 0.6 M NaCl, 0.1% (by vol) 2-mercaptoethanol. Aliquots of the supernatant, the resuspended pellet and the suspension before centrifugation were either assayed for myosin P-light chain phosphatase activity or denatured in SDS and analysed by SDS/polyacrylamide gel electrophoresis.

B1
binding result [1]: no binding | MLC20 phosphatase activity of PP1c [2]: ~3 fold

B2
binding result [3]: no binding (tested: 0.2 µg/ml probe)

B3
binding result [4]: no binding (tested: 30 nM with 1 µM myosin)
